System: intracellular proteome of ENR+CD and ENR organoids
Test: LC-MS/MS TMT proteomics of ENR+CD versus ENR organoids
Assay type: cell-based, C57BL/6 mice
Conditions: for Average logFC / M1-1 Log2 Median Normalized / M1-2 Log2 Median Normalized / M2-1 Log2 Median Normalized / M2-2 Log2 Median Normalized: protein abundance, ENR+CD versus ENR organoids; for Average logFC: aggregate of the four sample pairs; for M1-1 Log2 Median Normalized: replicate M1-1; for M1-1 Log2 Median Normalized / M1-2 Log2 Median Normalized / M2-1 Log2 Median Normalized / M2-2 Log2 Median Normalized: log2 ratio; for M1-2 Log2 Median Normalized: replicate M1-2; for M2-1 Log2 Median Normalized: replicate M2-1; for M2-2 Log2 Median Normalized: replicate M2-2; for change: up = enriched in ENR+CD, down = enriched in ENR, FDR<0.05 and log fold change cut-off

Molecule	Average logFC	M1-1 Log2 Median Normalized	M1-2 Log2 Median Normalized	M2-1 Log2 Median Normalized	M2-2 Log2 Median Normalized	change
Q3UW68 (protein, UniProt Q3UW68 1-665, looked up, full-length) MAHDAETSVVKFKNQDFRTLRDHCLSRGQLFIDDTFPAAASSIGEKLLRGKHLSKLEWKRPTSKDLPFYPPHFILEGASRFDIHQGIAGDCWFLAALGSLTQNPQCLQKILMDQSYSHQYAGIFQFRFWQCGQWVEVVIDDQLPVIGDNFLFVHPRGGNKEFWPCLMEKAYAKLLGSYSQLHYGYLPDALVDLTGGVVTIINLHSSPFDLLTTVKTAIQAGSMVACATENGLTEEAKVMENGLVSQHAYTVTGAEKIQYQGRWEDIIRLWNPWGKTEWKGRWKDGSKEWRETHDPRKSQLYENKEDGEFWMSCQDFQENFSCLFICNQIPITMDHGVTPNESWRQMRFTNQVISRNRAGGHGRDMQYVFSVQEHTAGNNVVVAFTIMPQSLNTEEERFPLQFQVFKVPQFQNVQGRLPPAFFSPFRSAAQGTKYVSKCNFTKSFHLNPGTYVVVTTANGKEVEFLLRIFLKMPDKHRDPSSNFNLRALKESLPENGSRNSISYTYMDQGLDIDATQLQSLLNQEFLTGPPGDTFSLDQCQSIMALMDLKVNGRLDQEEFARLRSRLIHCQHIFQSIQRRPGVLLSSDLWKVIENTDFLVGIFISSELLSLMALRYSDSSGRVSFPTLVCFLIRLETMAKAFRNLSKDGKGIYLTETEWMNLVMYS	−1.164	−1.402	−1.492	−1.0855	−0.676	down
Q3UQ28 (protein, UniProt Q3UQ28 1-1475, looked up, full-length) MAVRPTRRCLLALLLCFAWWAMAVVASKQGAGCPSRCLCFRTTVRCMHLLLEAVPAVAPQTSILDLRFNRIREIQPGAFRRLRSLNTLLLNNNQIKKIPNGAFEDLENLKYLYLYKNEIQSIDRQAFKGLASLEQLYLHFNQIETLDPESFQHLPKLERLFLHNNRITHLVPGTFSQLESMKRLRLDSNALHCDCEILWLADLLKTYAQSGNAQAAATCEYPRRIQGRSVATITPEELNCERPRITSEPQDADVTSGNTVYFTCRAEGNPKPEIIWLRNNNELSMKTDSRLNLLDDGTLMIQNTQEADEGVYQCMAKNVAGEAKTQEVTLRYLGSPARPTFVIQPQNTEVLVGESVTLECSATGHPLPQITWTRGDRTPLPIDPRVNITPSGGLYIQNVAQSDSGEYTCFASNSVDSIHATAFIIVQALPQFTVTPQSRVVIEGQTVDFQCAAKGHPQPVIAWTKGGSQLSVDRRHLVLSSGTLRISGVALHDQGQYECQAVNIIGSQKVVAHLTVQPRVTPVFASIPSDMTVEVGTNVQLPCSSQGEPEPAITWNKDGVQVTESGKFHISPEGFLTINDVGTADAGRYECVARNTIGYASVSMVLSVNVPDVSRNGDPYVATSIVEAIATVDRAINSTRTHLFDSRPRSPNDLLALFRYPRDPYTVGQARAGEIFERTLQLIQEHVQHGLMVDLNGTSYHYNDLVSPQYLSLIANLSGCTAHRRVNNCSDMCFHQKYRTHDGTCNNLQHPMWGASLTAFERLLKAVYENGFNTPRGINSQRQYNGHVLPMPRLVSTTLIGTEVITPDEQFTHMLMQWGQFLDHDLDSTVVALSQARFSDGQHCSSVCSNDPPCFSVMIPPNDPRVRSGARCMFFVRSSPVCGSGMTSLLMNSVYPREQINQLTSYIDASNVYGSTDHEARSIRDLASHRGLLRQGIVQRSGKPLLPFATGPPTECMRDENESPIPCFLAGDHRANEQLGLTSMHTLWFREHNRIAAELLKLNPHWDGDTVYHETRKIVGAEIQHITYRHWLPKILGEVGMKMLGEYRGYDPSVNAGIFNAFATAAFRFGHTLINPLLYRLDENFEPIPQGHVPLHKAFFSPFRIVNEGGIDPLLRGLFGVAGKMRIPSQLLNTELTERLFSMAHTVALDLAAINIQRGRDHGIPPYHDYRVYCNLSAAYTFEDLKNEIKSPVIREKLQRLYGSTLNIDLFPALMVEDLVPGSRLGPTLMCLLSTQFRRLRDGDRLWYENPGVFSPAQLTQLKQTSLARILCDNSDNITRVQQDVFRVAEFPHGYSSCEDIPRVDLRVWQDCCEDCRTRGQFNAFSYHFRGRRSLEFSYEDDKPTKRARWRKALSVKHGKHLSNATSATHEHLEGPATNDLKEFVLEMQKIITDLRKQINSLESRLSTTECVDDSGESHGGNTKWKKDPCTVCECKNGQITCFVEACQPAACPQPVKVEGACCPVCLKNTAEEKP	1.294	1.157	1.486	1.3875	1.146	up
Q3UR50 (protein, UniProt Q3UR50 1-1248, looked up, full-length) MPGLYCPTSWTPLPLTDSCVRAYAKGPCLSLRARLTYHNPQPQPVEGVFVYPLAEAEVVSGFEAEAAGRRVSFQLHSRRRSQAACCRALGPGLGTSTPRRCAQGHLVLNLAQARSTLVLPTGLVAAAGTMTVTLCSSRELPSRPDGVMHVALPTVFTPLAQPNLPGSPRSPGLCDDSPTSCFGVGSPEEERPTWEQPTATPDVFSGPARCPAPYTFSFEMLVTGPCLLAGLESPSHALRADALPHASSAATIRVTLAEGHQCDRALEILLHPSEPHQPHLMLETGSLSSAEYEAQVRARHDFQRLQQRDSGGERQVWFLQRRFHKDILLNPVLVLNFCPDLSSKPGHLNAATRELLFLLDGSGAGHKDAIVLAVKSLPAQTLVNLAIFGTLVQPLFPESRPCSDDTVQLICESIETLQTVNGPPDMLAVLDWALGQPQHRAYPRQMFLITAASPTAATTHQALEFMRWHRGAARCFSFALAPACRQLLHDLSVLSRGQAYFLRPGERLQPKLVQALRKALEPALSDISVDWFVPDAVEALLTPREIPALYPGDQLLGYCSLFRVDGFRSHALGGQEPGWQSLAGSVFPSPEEVLSATSPGTEPTHTTEPLGTGTVSAELSSPWAVGDSEQSMEALTDPVMDPGPNPSSDTAIWRRIFQSSYIREQYVLTHCSASPEPGPGSTCSSESPGSQGPGSPSGSRPLDPPSQQGCRSLAWVEPAGSRSCPLPVPPPSPFKVGAMSAEVLGRRQRAALAGRSLSSPSGRANPVPGRARHPSLDAIPDGLGPEPGQQLGQGLDDSGNLLSPAPLDWDMLMEPSFLFKPVPSSAESAPPAECLPPQAPRCHVVIRALCGEQPMCWEVGVGLEELWGPGDGSQPESLPMREAAWDQALHRLTAASVVQDNEQLALRGRAETRAEQGRVRRSWLRAIQTSKVSSAPSCFTCPVAVDATTREVLPGALQVWSSDPAELSGMSASQDQLAAAPLSTAVHSKGHQGGCSAGAWDLDLNDNSKSALGEPISPTGDHHGLPHQPPASSRLSLGRHRRLCSSNKGQTHENSNDGSNHDYLPLVRLQEAPGSFRLDEPFCAAVCIPQERLCRASPFAAHRASLSPTSASSPWAFLSPGIGQGDSATASCSQSPSSGSEGPGQVDSGRGSDTEASEGMERQDSSDLRGRTWATAVALAWLEHRCAAAFGEWELTASKADCWLRAQHLPDGLDLTALKAAARGLFLLLRHWDQNLQLHLLCYSPSNV	1.46	1.678	1.171	1.6125	1.377	up

Source: US11994512B2, “Single-cell genomic methods to generate ex vivo cell systems that recapitulate in vivo biology with improved fidelity” (Massachusetts Institute of Technology, priority 2018, dated 2024)
